Experiment in all cases: EC50 of free RNA motif oligo competing protein binding to immobilised probe
One data set addresses T1, HNRNPR (UniProt O43390).
T1 sequence: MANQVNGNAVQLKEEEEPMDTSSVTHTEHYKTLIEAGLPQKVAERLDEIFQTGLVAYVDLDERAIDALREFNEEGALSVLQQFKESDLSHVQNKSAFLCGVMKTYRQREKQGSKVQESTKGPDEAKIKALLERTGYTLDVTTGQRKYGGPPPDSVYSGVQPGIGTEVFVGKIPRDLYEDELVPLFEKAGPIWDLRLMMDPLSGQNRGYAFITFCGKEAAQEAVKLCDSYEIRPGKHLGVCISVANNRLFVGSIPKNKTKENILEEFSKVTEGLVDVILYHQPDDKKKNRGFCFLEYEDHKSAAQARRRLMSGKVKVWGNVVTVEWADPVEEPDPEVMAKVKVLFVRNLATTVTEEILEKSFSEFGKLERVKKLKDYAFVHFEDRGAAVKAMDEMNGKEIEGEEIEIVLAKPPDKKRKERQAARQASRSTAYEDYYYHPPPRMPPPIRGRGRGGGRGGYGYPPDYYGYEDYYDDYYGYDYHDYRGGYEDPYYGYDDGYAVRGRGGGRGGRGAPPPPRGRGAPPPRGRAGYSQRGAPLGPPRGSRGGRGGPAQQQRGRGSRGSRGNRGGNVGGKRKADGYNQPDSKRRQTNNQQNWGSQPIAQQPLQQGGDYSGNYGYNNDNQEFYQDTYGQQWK
In a few lines: (§1)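 HEK293-FT lysate (2.5 mg protein/well) was pre-incubated 1 h at 4°C with free RNA oligos (0 nM to 30 μM), then 30 min at 4°C with the same 5′-amino-C6 oligos coupled to NHS-Sepharose beads. Bound proteins were quantified by label-free LC-MS/MS in three biological replicates and two independent experiments, and normalised to the water control. EC50 came from a four-parameter log-logistic fit; Kd is EC50 times a protein-dependent depletion factor.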

The next data set has as its target T2, AASS (UniProt Q9UDR5).
T2 sequence: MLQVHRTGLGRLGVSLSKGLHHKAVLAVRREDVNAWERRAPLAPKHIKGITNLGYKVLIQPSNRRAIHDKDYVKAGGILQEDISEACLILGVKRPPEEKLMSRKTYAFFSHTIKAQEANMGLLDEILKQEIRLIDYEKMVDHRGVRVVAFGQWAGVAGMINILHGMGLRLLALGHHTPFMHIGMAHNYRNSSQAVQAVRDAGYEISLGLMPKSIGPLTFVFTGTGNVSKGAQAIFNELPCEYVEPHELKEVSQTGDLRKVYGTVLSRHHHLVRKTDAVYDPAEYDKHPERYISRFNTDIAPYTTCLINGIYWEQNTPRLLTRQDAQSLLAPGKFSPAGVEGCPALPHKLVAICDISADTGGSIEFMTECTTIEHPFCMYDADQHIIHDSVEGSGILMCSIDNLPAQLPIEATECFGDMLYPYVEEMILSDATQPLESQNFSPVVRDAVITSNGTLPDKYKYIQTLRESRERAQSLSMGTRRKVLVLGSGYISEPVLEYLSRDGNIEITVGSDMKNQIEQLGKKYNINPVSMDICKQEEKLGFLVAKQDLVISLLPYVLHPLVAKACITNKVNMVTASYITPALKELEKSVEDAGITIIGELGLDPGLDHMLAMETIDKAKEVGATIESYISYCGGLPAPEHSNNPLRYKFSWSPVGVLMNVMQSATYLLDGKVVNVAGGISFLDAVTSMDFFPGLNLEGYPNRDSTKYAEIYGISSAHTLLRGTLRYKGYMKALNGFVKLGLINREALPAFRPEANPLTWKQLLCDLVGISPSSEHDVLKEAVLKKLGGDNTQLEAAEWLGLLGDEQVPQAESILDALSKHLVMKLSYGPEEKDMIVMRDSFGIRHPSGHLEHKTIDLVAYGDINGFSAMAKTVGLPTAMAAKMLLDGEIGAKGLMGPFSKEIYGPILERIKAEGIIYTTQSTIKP
In a few lines: as §1

In a further data set the target is T3, TIAL1 (UniProt Q01085).
T3 sequence: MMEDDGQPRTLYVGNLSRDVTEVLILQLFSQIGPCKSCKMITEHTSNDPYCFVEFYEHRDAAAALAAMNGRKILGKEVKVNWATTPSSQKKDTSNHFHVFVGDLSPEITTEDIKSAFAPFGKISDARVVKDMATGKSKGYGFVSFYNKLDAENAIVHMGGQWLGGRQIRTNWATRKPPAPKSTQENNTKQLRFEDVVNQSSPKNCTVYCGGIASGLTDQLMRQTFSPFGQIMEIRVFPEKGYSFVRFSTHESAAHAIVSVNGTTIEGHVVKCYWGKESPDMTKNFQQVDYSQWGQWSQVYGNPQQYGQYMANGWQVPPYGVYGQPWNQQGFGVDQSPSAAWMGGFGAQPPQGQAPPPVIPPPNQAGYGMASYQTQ
In a few lines: as §1

The next data set deals with T4, FUBP1 (UniProt Q96AE4).
T4 sequence: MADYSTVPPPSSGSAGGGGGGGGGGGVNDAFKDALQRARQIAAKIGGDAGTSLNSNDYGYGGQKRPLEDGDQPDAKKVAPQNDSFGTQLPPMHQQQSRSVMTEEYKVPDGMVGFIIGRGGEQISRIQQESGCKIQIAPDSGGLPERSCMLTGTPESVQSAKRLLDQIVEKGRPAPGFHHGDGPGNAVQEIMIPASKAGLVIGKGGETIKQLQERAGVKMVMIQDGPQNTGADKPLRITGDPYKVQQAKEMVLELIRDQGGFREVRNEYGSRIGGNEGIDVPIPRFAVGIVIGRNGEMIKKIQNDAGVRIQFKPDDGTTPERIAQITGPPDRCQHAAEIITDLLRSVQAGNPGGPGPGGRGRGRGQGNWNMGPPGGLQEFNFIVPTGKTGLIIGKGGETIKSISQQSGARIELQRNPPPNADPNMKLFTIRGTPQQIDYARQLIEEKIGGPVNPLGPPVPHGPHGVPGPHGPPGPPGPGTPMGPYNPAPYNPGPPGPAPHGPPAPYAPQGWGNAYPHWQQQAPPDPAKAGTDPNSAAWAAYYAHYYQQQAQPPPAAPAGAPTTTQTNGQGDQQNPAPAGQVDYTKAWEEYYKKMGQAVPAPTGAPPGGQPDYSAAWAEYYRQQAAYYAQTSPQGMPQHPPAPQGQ
In outline: as §1

Our source for the EC50 values is the supplement of paper PMC6379048.

In general, EC50 refers to the concentration that produces a half-maximal response. AAUAAA: the EC50 came out at 2.84 µM with HNRNPR, 9.78 µM with AASS, 0.546 µM with TIAL1 and 5.75 µM with FUBP1.
